Target: SARS-CoV-2 S receptor-binding domain (RBD) (SARS-CoV-2 (isolate Wuhan-Hu-1)) (UniProt P0DTC2)
Experiment: SPR

“cynomolgus macaque (Macaca fascicularis) ACE2 ectodomain (ectoACE2), N-terminal 367 aa (domain or fragment)” was tested, and the Kd was 69.2 nM.

With “rhesus macaca (Macaca mulatta) ACE2 ectodomain (ectoACE2), N-terminal 367 aa (from UniProt F7AH40 1-367) (domain or fragment)” the Kd was 68 nM.
